From the RNAGym collection of RNA variant scans (doi:10.1073/pnas.2313332121)

B1: TPR t1 (parent)
chain: GACCAAUCUGCCCUCAGAGCUCGAGAACAUCUUCGGAUGCAGAGGAGGCAGGCUUCGGUGGCGCGAUAGCGCCAACGUCCUCAACCUCCAAUGCAUCCCACCACAUGAUGAUGCCUGAAGAGCCUUGGUUUUUUG

Variants of: B1
Assay: polymerase ribozyme fitness, log enrichment relative to wild type (log ratio); higher = more active; in vitro selection for triplet polymerase activity
In short: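 Each subunit of a heterodimeric triplet polymerase ribozyme was represented by a PCR-built, transcribed mutant library that underwent triplicate single-round in vitro selection with frozen incubation at −7 °C. Extended constructs were recovered by gel excision, streptavidin-bead capture and RT-PCR, and Illumina sequencing of input and output libraries kept genotypes with ≥10 input reads and ≥1 read per output. Fitness is the logarithm of genotype enrichment relative to wild-type enrichment, from inverse-variance-weighted replicate averages, with a logarithm base of 2.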

Row | Variant | polymerase ribozyme fitness (log ratio)
1 | GACCAAUCUGCCCUCAGAGCUCGAGAUCAUCUUCGGAUGCAGAGGAGGGAAGCUUCGGUGGCGCGAUAGCGCCAACGUCAUCAACCUCCAAUGCAUCCUACCACAUGAUGAUGCCUGAACAGCCUUGGUAUUUUG [A27U C49G G51A C80A C99U G120C U130A] | -8.17
2 | GACCAAUCUGCCCUCAGAGCUCGAGAUCAUCUUCGGAUGCAGAGGAGGCAGGCUUCGGUGGCGCGAUAGCGCCAAAGUACUCAACCUCCAAUGCAUCCCACCACAUGAUGAUGCCUGAAGAGCCUUGGUUUUUUG [A27U C76A C79A] | -4.71
3 | GACCAAUCUGCCCUCAGAGCUCGAGAUCAUCUUCGGAUGCAGAGGAGGCAGGCUUCGGUGGCGCGAUAGCGCCAACGUCCUGAACCUCCAAUGCAUCCCACAACAUGAUGAUGCCUGAAGAGACUUGGUUUUUUG [A27U C82G C102A C123A] | -4.66
4 | GACCAAUCUGCCCUCAGAGCUCGAGAUCAUCUUCGGAUGGAGAGUAGGCAGGCUUCGGUGGCGCGAUAGCGCCAACGUCCUCAACCUCCAAUGCAUCCCACCACAUGAUGAUGCCUGAUGAGCCUUGGUUUUUUG [A27U C40G G45U A119U] | -5.54
5 | GACCAAUCUGCCCUCAGAGCUCGAGAUCAUCUUCGGAUGCAGAGGAGGCAGGCUUCGGUGGCGCGAUAGCGCCAACGUCCUCAACCUCCAAUGCAUUCCACCACAUGAUGAUGCCUGAAGAGCCUUGGUUUUUUG [A27U C97U] | -3.07
6 | GACCAAUCUGCCCUCAGAGCUCGAGAUCAUCUUCGGAUGCAGAGGAGGCAGGCUUCGGUGGCGCGAUAGAGCCAACGUCCUCAACCUCCAAUGCAUCCCACCACAUGAUGAUGCCUGAAGAGCCUUGGUUUUUUG [A27U C70A] | -4.74
7 | GACCAAUCUGCCCUCAGAGCUCGAGAUCAUCUUCGGAUGCAGAGGAGGCAGGCUUCGGUGGCGCGAUAGUGCCAACGUCCUCAACCUCCAAUGCAUCCCACCACAUGAUGAUGCCUGAAGAGCCUUGGUUUUUUG [A27U C70U] | -3.44
8 | GACCAAUCUGCCCUCAGAGCUCGAGAUCAUCUUCGGAUGCAGAGGAGGCAGGCUUCGGUGGCGCGAUAGGGCCAACGUCCUCAACCUCCAAUGCAUCCCACCACAUGAUGAUGCCUGAAGAGCCUUGGUUUUUUG [A27U C70G] | -6.31
9 | GACCAAUCUGCCCUCAGAGCUCGAGAUCAUCUUCGGAUGCAGAGGAGGCAGGCUUCGGUGGUGCGAUAGCGCCAACGUCCUCAACCUCCAAUGCAUCCCACCACAUGAUGAUGCCUGAAGAGCCAUGGUUUUUUG [A27U C62U U125A] | -3.89
10 | GACCAAUCUGCCCUCAGAGCUCGAGAUCAUCUUCGGAUGCAGAGGAGGUAGGCUUCGGUGGCGCGAUAGCGCCAACGUGCUCAACUUCCAAUGCAUCCCACCACAUGAUGAUGCCUGAAGAGCCUUGGUUUUUUG [A27U C49U C79G C86U] | -4.94
11 | GACCAAUCUGCCCUCAGAGCUCGAGAUCAUCUUCGGAUGCAGAGGAGGCAGGCUUCGGUGGAGCGAUAGCGCCAACGUCCUCAACCUCCAAUGCAUCCCACCACAUGAUGAUGCCUGAAGAGCCUUGGUUUUUUG [A27U C62A] | -4.1
12 | GACCAAUCUGCCCUCAGAGCUCGAGAUCAUCUUCGGAUGCAGAGGAGGCAGGCUUCGGUGGCGCGAUAGCGUCAACGUCCUCUACCUCCAAUGCAUCCCACCACAUGAUGAUGCCUGAAGAGCCUUGGUUUUUUG [A27U C72U A83U] | -3.67
13 | GACCAAUCUGCCCUCAGAGCUCGAGAUCAUCUUCGGAUGCAGAGGAGGCAGGCUUCGGUGGCGCGAUAGCGCCAACGUCCUCAACCUCUAAUGCAUCCCACCACAUGAUGAUGCCUGAAGAGCAUUGGUUUUUUG [A27U C89U C124A] | -1.39
14 | GACCAAUCUGCCCUCAGAGCUCGAGAUCAUCUUCGGAUGCAGAGGAGGCAGGCUUCGGUGGCGCGAUAGCGACAACGUCCUAAACCUCCAAUGCAUCCCACCACAUGAUGACGCCUGAAGACCCUUGGUUUUUUG [A27U C72A C82A U112C G122C] | -2.28
15 | GACCAAUCUGCCCUCAGAGCUCGAGAUCAUCUUCGGAUGUAGAGGAGGCAGGCUUCGGUGGCGCGAUAGCGCCAAGGUCCUCAACCUCCAAUGCAUCCCACCACAUGAUGAUGCCUGAAGAGCCUUGGUUUUUUG [A27U C40U C76G] | -4.54
16 | GACCAAUCUGCCCUCAGAGCUCGAGAUCAUCUUCGGAUGCAGAGGAGGCAGGCUUCGGUGGCGCGAUAGCGCCAACGUCCUCAACCUCCAAUGCAUCCCACCAAAUGAUGAUGCCUGAAGAGCCUUGGUUUUUUG [A27U C104A] | -4.18
17 | GACCAAUCUGCCCUCAGAGCUCGAGAUCAUCUUCGGAUGCAGAGGAGGCAGGCUUCGGUGGCGCGAUAGCGCCAACGUCCUCAACCUCCAAUGCAUCCCACCACAUGAUGAUGCCUGAAGAGACUUGGUUUUUUG [A27U C123A] | -1.74
18 | GACCAAUCUGCCCUCAGAGCUCGAGAUCAUCUUUGGAUGCAGAGUAGGCAGGCUUCGGUGGCGCGAUAUCGCCAACGUCCUCAACCUCCAAUGCAUCCCACCACAUGAUGAUGCCUGAAGAGCCUUGGUUUUUUG [A27U C34U G45U G69U] | -5.7
19 | GACCAAUCUGCCCUCAGAGCUCGAGAUCAUCUUCGGAUGCAGAGGAGGCAGGCUUCGGUGGCGCGAUAGCGACAACGUCCUCAACCUCCAAUGAAUCCCACCACAUGAUGAUGCCUGAAGAGCCUUGGUUUUUUG [A27U C72A C94A] | -4.07
20 | GACCAAUCUGCCCUCAGAGCUCGAGAUCAUCUUCGGAUGCAGAGGAGGCAGGUUUCGGUGGCGCGAUAGCGCCAACGUCCUCAACCUCCAAUGCAUCCCACCACAUGAUGAUGCCUGAAGAGCCUUGGUUUUUUG [A27U C53U] | -2.7
21 | GACCAAUCUGCCCUCAGAGCUCGAGAUCAUCUUCGGAUGCAGAGGAGGCAGGGUUCGGUGGCGCGAUAGCGCCAACGUCCUCAACCUCCAAUGCAUCCCACCACAUGAUGAUGCCUGAAGAGCCUUGGUUUUUUG [A27U C53G] | -2.71
